Experimental data taken from patent publication US20130225503A1, “TEX14 PEPTIDES AS NOVEL ANTITUMOR AGENTS” (Baylor Licnensing Group, priority 2009, published 2013).
“Also recorded” adds a separate entry of the source.

Experiments:
Type in all cases: cell-based
TSG-CEP interaction = target: T1, TSG-CEP interaction (Homo sapiens, UniProt Q53EZ4); experiment: Competition assay using the mammalian two-hybrid system, TSG101-CEP55 interaction; details: pcDNA3 overexpression in HEK293T cells; FIG. 6B, FIG. 7 center
T1 construct: expressed in transfected cells; host or cells: HEK293T
T1 sequence (Q53EZ4 157-236 limits assumed): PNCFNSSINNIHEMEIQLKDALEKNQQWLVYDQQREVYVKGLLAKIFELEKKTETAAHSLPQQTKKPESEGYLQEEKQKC
Source text: (§1) A modified form of the CheckMate/Flexi vector mammalian two-hybrid system (Promega) was used to study the interactions of proteins in mammalian cells. A pGL4Cherry (mCherry/GAL4UAS/Hygro) vector was engineered from the pGL4.31 (luc2P/GAL4UAS/Hygro) vector by replacing the Luc2P firefly luciferase reporter sequence with the mCherry sequence. The pACT vector expresses a protein of interest, “X,” fused to a transcriptional activation domain (VP16-AD) and the pBIND vector expresses the other protein of interest, “Y,” fused to a DNA-binding domain (GAL4-BD) and Renilla luciferase by separate promoters. […]
(§2) Sequences encoding the truncated TEX14, CEP55, ALIX, or TSG101 fragments were cloned into the multiple cloning regions of the pACT and pBIND vectors. Some exemplary constructs used are summarized in FIGS. 6A and B. pACT (protein X), pBIND (protein Y), and pGL4Cherry (mCherry/GAL4UAS/Hygro) were transiently cotransfected into HEK293T cells using Fugene 6/HD transfection reagent, and the cells were examined 44 h later for red fluorescence by using an Axiovert 40 CFL microscope (Carl Zeiss). […] The cells were lysed by using Renilla luciferase assay reagent (Promega), and red fluorescence and Renilla luciferase were measured by using a Polar Star Omega microplate reader (BMG LabTech). […]

ALIX-CEP interaction = target: T2, ALIX-CEP interaction (Homo sapiens, UniProt Q53EZ4); experiment: Competition assay using the mammalian two-hybrid system, ALIX-CEP55 interaction; details: pcDNA3 overexpression in HEK293T cells; FIG. 6A, FIG. 7 left
T2 construct: expressed in transfected cells; host or cells: HEK293T
T2 sequence (Q53EZ4 157-236 limits assumed): T1 sequence (Q53EZ4 157-236 limits assumed)
Source text: as §1, §2

[1] = test system: full-length ALIX localization to the midbody; experiment: Cotransfection with YFP full-length ALIX into HeLa cells, ALIX midbody localization and interconnected cells
Source text: The mouse TEX14 open reading frame (ORF) sequence was ligated into the BamHI and SalI sites of the pCMV-tag2 vector (Stratagene), which contains an N-terminal FLAG tag sequence. The mouse CEP55 ORF was cloned from testis cDNA and subcloned into the EcoRI and SalI sites of the pcDNA3 (Invitrogen) vector containing an N-terminal MYC tag sequence. The truncated and mutant TEX14 (TX, AAAX3A) and the full-length ALIX sequences were ligated into the BamHI and NotI or the NotI and XbaI sites, respectively, of the pcDNA3 vectors, while mCherry or YFP sequences were subcloned into the KpnI and BamHI sites. Purified plasmid DNA was obtained by using a QIAprep spin miniprep kit (Qiagen), and all constructs were sequenced for integrity.
HEK293T or HeLa cells were maintained in Dulbecco's modified Eagle medium (Invitrogen) supplemented with 10% fetal calf serum (SAFC Biosciences), 1% L-glutamine (Invitrogen), and penicillinstreptomycin (Invitrogen) and grown on poly-D-lysine (Sigma)-coated coverslips in culture plates at 37 C° in a humidified 5% CO2 atmosphere. For immunoprecipitation and immunoblot experiments, cells were seeded at 50 to 80% confluence in […] (Corning) and transiently transfected using Fugene 6/HD transfection reagent (Roche) according to the manufacturer's instructions. […]

[2] = target: T3, hinge region of human CEP55 (Homo sapiens, UniProt Q53EZ4); experiment: Modified mammalian two-hybrid assay in HEK293T cells, TEX14 fragment binding to CEP55; details: transfected HEK293T cells; FIG. 5C, 5E, 5F, FIG. 7
T3 construct: expressed in transfected cells; host or cells: HEK293T
T3 sequence (Q53EZ4 157-236 limits assumed): T1 sequence (Q53EZ4 157-236 limits assumed)
Source text: as §1, §2

TX: GPPX3Y region of human TEX14, the 60 amino acids from 754 to 813 (LRNIEQILDEVEMKQKEQEERMSLWATSREFTNAYKLPLAVGPPSLNYIPPVLQLSGGQK; UniProt Q8IWB6 754-813, looked up, fragment)
effect of overexpression on TSG-CEP interaction (TSG-CEP interaction): suppressed | effect of overexpression on ALIX-CEP interaction (ALIX-CEP interaction): suppressed | full-length ALIX localization to the midbody ([1]; HeLa cells cotransfected with pcDNA-mCherry-truncated TEX14 and pcDNA-YFP full-length ALIX): inhibits full-length ALIX localization to the midbody | interconnecting cells (intercellular bridges) in transfected cells ([1]; HeLa cells, FIG. 6G left): several interconnecting cells were visualized | binding to CEP55 hinge region (mCherry/Renilla luciferase or mCherry/YFP ratio) [2]: strongly binds; also recorded: typically stronger than the ALIX-CEP or TSG-CEP interactions
